Measurements reported in article PMC11413682.

B1: SARS-CoV-2 ORF10 N5 peptide [SARS-CoV-2] / CUL2^ZYG11B (residues 490–728) [human] (parent)
chain 1: GYINV
chain 2: ELFIVRQLLQIVKQKTNQNSVDTTLKFTLSALWNLTDESPTTCRHFIENQGLELFMRVLESFPTESSIQQKVLGLLNNIAEVQELHSELMWKDFIDHISSLLHSVEVEVSYFAAGIIAHLISRGEQAWTLSRSQRNSLLDDLHSAILKWPTPECEMVAYRSFNPFFPLLGCFTTPGVQLWAVWAMQHVCSKNPSRYCSMLIEEGGLQHLYNIKDHEHTDPHVQQIAVAILDSLEKHIVR

Variants of: B1
Experiment: ITC
Details: with CUL2^ZYG11B (residues 490–728) [human]
For chain 1 G1S, the Kd was 13.2 µM.
